Experimental data: PMC10752894, “Structural basis for DNA proofreading” (Nature Communications, 2023)

B1: DNA20sA/DNA20TS (Complex ONE) (dsDNA)
DNA 1: GAAGACAGTCTGCGGCGCGA
DNA 2: ACACACGCGCGCCGCAGACTGTCTTC
modifications: phosphorothioate before the 3'-terminal A of the primer (racemic)
B2: human mitochondrial DNA polymerase Gamma accessory subunit Polγ_B (residues 26–485) (natural protein, UniProt Q9UHN1 26-485, looked up)
chain: DAGQPELLTERSSPKGGHVKSHAELEGNGEHPEAPGSGEGSEALLEICQRRHFLSGSKQQLSRDSLLSGCHPGFGPLGVELRKNLAAEWWTSVVVFREQVFPVDALHHKPGPLLPGDSAFRLVSAETLREILQDKELSKEQLVAFLENVLKTSGKLRENLLHGALEHYVNCLDLVNKRLPYGLAQIGVCFHPVFDTKQIRNGVKSIGEKTEASLVWFTPPRTSNQWLDFWLRHRLQWWRKFAMSPSNFSSSDCQDEEGRKGNKLYYNFPWGKELIETLWNLGDHELLHMYPGNVSKLHGRDGRKNVVPCVLSVNGDLDRGMLAYLYDSFQLTENSFTRKKNLHRKVLKLHPCLAPIKVALDVGRGPTLELRQVCQGLFNELLENGISVWPGYLETMQSSLEQLYSKYDEMSILFTVLVTETTLENGLIHLRSRDTTMKEMMHISKLKDFLIKYISSAKNV
notes: human DNA polymerase gamma accessory subunit Polγ_B, residues 26-485; It is a homodimer in the holoenzyme, with a proximal copy Polγ_B1 and a distal copy Polγ_B2; also called Polγ_B homodimer; Polγ_B1; source: E. coli BL21-CodonPlus (DE3)-RIPL, purified (Ni-NTA, HiTrap heparin)

Assays:
[1] = molecular target: Polγ holoenzyme, cryo-EM Complex ONE (Homo sapiens, UniProt P54098;Q9UHN1 26-1239;26-485); assay: cryo-EM; Complex ONE class 1; EMSA: 40 mM Tris-HCl pH 7.9, 60 mM NaCl, 10 mM MgCl2, 5% glycerol, 20 mM 2-mercaptoethanol, 0.1 mg/ml BSA, 150 nM Cy3 scaffold, 10 min room temperature; 0.5% agarose, 0.5X TBE, 4 °C; conditions: protein: recombinant; tags: N-terminal His (both subunits); copies: 1;2; primer-template, 6 nt 5' template overhang, 3'-terminal A mismatched with G
[2] = molecular target: the molecule itself; assay: cryo-EM structure; Complex ONE: 2 μM WT Polγ holoenzyme with the DNA20*A/DNA20_TS scaffold (phosphorothioate mismatched primer), 10 mM Tris-HCl pH 7.9, 100 mM NaCl, 10 mM DTT, 2 mM MgCl2. Complex THREE: the same with the hydrolyzable DNA20A primer. Gives Structures I, II, VII, VIII, IX

Sequence of Polγ holoenzyme, cryo-EM Complex ONE (P54098 26-1239, one chain of several): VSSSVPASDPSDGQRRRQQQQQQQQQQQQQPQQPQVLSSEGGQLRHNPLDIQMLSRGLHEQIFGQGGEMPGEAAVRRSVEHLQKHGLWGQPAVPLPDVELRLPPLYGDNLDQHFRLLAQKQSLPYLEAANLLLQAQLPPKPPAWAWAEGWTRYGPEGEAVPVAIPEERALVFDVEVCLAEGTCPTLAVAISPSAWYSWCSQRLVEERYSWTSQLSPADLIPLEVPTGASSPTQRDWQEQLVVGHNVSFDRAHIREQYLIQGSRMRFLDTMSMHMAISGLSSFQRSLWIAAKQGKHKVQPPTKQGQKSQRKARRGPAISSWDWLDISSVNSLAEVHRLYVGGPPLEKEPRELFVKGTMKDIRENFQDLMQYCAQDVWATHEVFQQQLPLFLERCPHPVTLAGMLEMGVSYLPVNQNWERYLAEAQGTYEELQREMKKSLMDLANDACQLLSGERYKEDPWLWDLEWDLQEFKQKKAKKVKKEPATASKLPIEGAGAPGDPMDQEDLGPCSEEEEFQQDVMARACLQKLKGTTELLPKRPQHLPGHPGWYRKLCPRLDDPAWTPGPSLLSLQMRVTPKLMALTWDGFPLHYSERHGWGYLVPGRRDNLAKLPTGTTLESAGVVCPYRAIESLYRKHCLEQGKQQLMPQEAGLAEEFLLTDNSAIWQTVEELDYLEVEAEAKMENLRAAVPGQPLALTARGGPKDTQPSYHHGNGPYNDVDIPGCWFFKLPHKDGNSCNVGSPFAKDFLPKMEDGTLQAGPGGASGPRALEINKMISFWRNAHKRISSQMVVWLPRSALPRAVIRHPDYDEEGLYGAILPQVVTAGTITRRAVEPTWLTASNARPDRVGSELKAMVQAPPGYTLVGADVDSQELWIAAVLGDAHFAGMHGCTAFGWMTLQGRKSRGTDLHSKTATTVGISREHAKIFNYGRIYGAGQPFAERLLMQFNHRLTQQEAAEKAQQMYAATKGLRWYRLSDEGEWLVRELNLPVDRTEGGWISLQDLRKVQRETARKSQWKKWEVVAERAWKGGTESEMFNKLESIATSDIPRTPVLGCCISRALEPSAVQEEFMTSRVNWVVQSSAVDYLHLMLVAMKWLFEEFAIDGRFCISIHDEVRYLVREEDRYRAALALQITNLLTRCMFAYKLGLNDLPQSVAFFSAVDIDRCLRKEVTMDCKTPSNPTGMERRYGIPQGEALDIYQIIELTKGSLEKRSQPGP

Binder | binding result [1] | binding result [2]
B1 | binds | 
B2 |  | binds
